Drawing on patent publication US20020115169A1, this text covers % inhibition of temperature-dependent Rev aggregation (turbidity for one substance.

For this experiment, the target named is HIV-1 Rev protein (recombinant, expressed in E. coli, refolded) (HIV-1). Description: cell-based or functional assay.

As for “nucleolar protein B23.1 (recombinant, produced in E. coli) (from UniProt P13084 1-292)”, the % inhibition of temperature-dependent Rev aggregation (turbidity at 360 nm, 20 minute time point) versus molar ratio of B23 to Rev (mol B23 per mol Rev) was found to be 1.
